Source: patent US20240117010A1 (NAVIGO PROTEINS, published 2024)

B1: 212522 (SEQ ID NO: 19) (designed binder)
chain: IAAKFDEAQQAAFYEILHLPNLTELQRNWFIQLLRDDPSVSLQVLGHAQYLNDSQAPKIAAKFDEAQQYAFYQILHLHNLTEEQRNAFIQSLRDDPSVSHEVLGEAKKLNESQAPK
B2: 212434 (SEQ ID NO: 1) (designed binder)
chain: NAAVLDIAQHSATEEIWWLPNLTKQQKVWFIMSLTQDPSVSKEVLGEAQKLNDSQAPK

How the values were obtained:
[1] = target: SARS-CoV2 S1 protein (S1 domain of the spike protein) (SARS-Cov-2, UniProt P0DTC2 16-685)
[2] = target: SARS-CoV2 RBD (receptor binding domain of the spike protein) (SARS-Cov-2, UniProt P0DTC2 319-541)

| Binder | Kd [1] [nM] | Kd [2] [nM] |
| --- | --- | --- |
| B1 | 24.1 | 27.1 |
| B2 | 3.8 | 10.2 |
